Assay: soluble on expression in E. coli; label from the status in PepcDB or PDB records

| Sequence | soluble on expression in E. coli |
| --- | --- |
| MLPRTMAADEGHVPGRFDAVIVGGGHNGLVAAAYLARAGRSVLVLERLGNTGGAAVSTRPFAGVDARLSRYSYLVSLLPRKIVRDLGLDFRVRGRTVSSYTPAERHGRPTGLLVGGGERRTREAFGRLTGSAREYESWQRFYGMTGRVARQVFPTLTEPLPSRDELRRRVDDEDAWRVLFEEPIGAAIEENFTDDLVRGVVLTDALIGTFADAHDPSLRQNRCFLYHIIGGGTGAWDVPVGGMGALTDALAAAARDAGAVLATGHEAVRIETDGRSAEVTYRDADGEGTVSARHVLVNAAPQELARLTGDSPPVPAEGAQLKVNMLLKRLPALRDTAVDPREAFAGTFHIAEGYEQLAAAHAQAAAGSLPEAPPSEIYCHSLTDPTILGPDLVEQGYQTLTLFGLHTPARLFERDNEGVREELLKSTLAQLDAHLAEPLVDCLATDAEGRPCIEAKSPLDLERDLRLPGGNIFHRDLAFPYAQEGTGRWGVETAHANVLLCGAGAVRGGGVSGVPGHNAAMAALEDVGERALGLEHHHHHH | not soluble |
| MLPTTSSLQIGELAAGQALTLPIYHFKPSGKHSGPKVYIQANVHGAEVQGNAVIYQLMKQLERCDILGEITLVPLANPLGINQKSGEFTLGRFDPITGVNWNREYLNHAIDLPTWYKEHAELSDSELIQAYRSTLVEACQRRLRNDWGVTTGHRLAVNLQAMAHEADIVLDLHTGPKSCKHLYCPEYDIASAQFFAIPYTLVIPNSFGGAMDEAAFCPWWQLSEVAKVMGRDLEIAVSAFTLELASQERICLEDALVDAKGILAYLSHRGVIAEQVEPAKMRRFGCYLKDYKKYHAPMAGLVEYVAPVGEPLAAGETLVNLLRLDLYGSEQELTALSLPQDCVPILHFASASVHQGTELYKVMTNLFELPH | soluble |
| MLPVQILKDNAQEERGESARLSSFVGAIAIGDLVKSTLGPKGMDKILISGNPESAGGIKVTNDGATILKSIGVDNPAAKVLVDMSMTQDHEVGDGTTSVTVLAAELLKEAEKLVNQRIHPQTIISGYRRALGIAQESLKKSSIESGDNIRDDLLKIARTTLGSKILSQHKEHFAQLAVDAVLRLKGSGNLDAIQIIKKLGGSMNESYLDEGFLLEKLPGMFQPRRVEKAKILIANTPMDTDKVKVFGSRVRVDGVAKVAELEAAEKLKMKEKVDKILAHNCNVFINRQLIYNYPEQLFADAKVMAIEHADFEGIERLALVLGGEIVSTFDSPQTAQFGSCDLIEEIMIGEDRLLRFSGVKLGEACSVVLRGATQQILDESERSLHDALCVLVTHVKESKTVAGAGASEILMSSAIAVEAQKVAGKEALAVEAFGRALAQLPTIICDNAGLDSAELVTRLRAEHANGRHNMGIDIEKGEVADVTKLGVIESYNVKLCMVSSAAEATEQILRVDDIIKAAPRARAQDNRPC | not soluble |
| MLQHYSVSWKKGLAALCLLAVAGLSGCDQQENAAAKVEYDGLSNSQPLRVDANNHTVTMLVQINGRFLTDDTRHGIVFKDGSNGHKSLFMGYATPKAFYEALKEAGGTPGENMTMDNKETTHVTGSKLDISVNWQGAAKAYSFDEVIVDSNGKKLDMRFGGNLTAAEEKKTGCLVCLDSCPVGIVSNATYTYGAVEKRGEVKFKGNASVLPADNTLATVTFKIAE | soluble |
| MLQPILSISGKSGLFRLVSRGKNTLIVEALDTKRRTPTYPSDRVVSLGDISIYTIEDDVPLPEVMETIYRKNEGKQLDAPALTKDNDSLRAFFGEVLPEYDVDRVYPSDIRKIISWYNLLVDNGFTTFLSDKKPAEEETTEKE | not soluble |
| MLRNGRLFGHRVETGFPDLPILEVSLRTGVRVRDMDNLKRKQVMSQKEKYKRAVKGDIAYNMMRMWQGAVGPVPEDGLVSPAYVVVKPYAEANSTYFSYLFRTAAYMQEVNKFSRGIVADRNRLYWESFKQMPSLVPPRPEQDQIVTYLRTQDAHIACFIRAKRDLIALLTEQKLRIIDHAVTRGLDASVKLKPSDIEWLGEVPAHWEVKRLKFLAGNITSQTTTKADDEIYLALEHVQSWTGVARPLGGEVEFASTVKRFVADDVLFGKLRPYLAKVTRVVCAGVCVSEFLVLRSRQELILPAYLEQLLRCKRVIDLISSSTAGAKMPRADWNFIGNVRLPIPRKDEQEAILSHIGRETKDLDETIARAEDEIKLIREYRDRLIADAVTGQVDLRGWQPGPDDVVSDDDLAALGDDDAGSSDDEEADA | not soluble |
| MLRQWWLRSVGSCSTVYRAHSGCSTSAAVKPKRAIPTDGLQLSDFIKESTKKQRQKAIIPSIEDTKEYLNPEDLQGNGRTVCYVTYGCQMNVSDMEIVRSIMTKYGFVESDKKENADIVLLMTCSIRDGAEKKVWNQLKLIRSNSVNKGQIVGVLGCMAERVRHDLLEKRNLVNIVAGPDSYRDLPRLVAVAAGGSNGINVQLSLDETYADVQPIRVDSASKTAFISIMRGCDNMCTYCVVPFTRGRERSRPIESIVEEVQRLRDQGYKQVTLLGQNVNSYRDMTSMDFSMAPSTSQEDRVPGFKTVYKPKSGGLTFTTLLEKVADAAPDIRFRFTSPHPKDFPMQLIELIASRPNLCKQLHLPAQSGDDETLERMERGYTRDLYLRLVDDIRHVLPSVSLTSDFIAGFCGETEQAHQNTLSLIRAVRYSFCFVFPYSMRGKTRAHHRLTDDVPEDVKARRHLDLTTVFREEALKLNQALIGSEQTVLLEGKSKRDASFSHGRIDGGVKAVFDNSKLCLEPGQYAKILITDANSQTLKAQLIGQSSI | not soluble |
| MLRRTLHCCTAVRHTSVPSFMQHPVEMAFYFPRFHPDTHVNAAGIPELIDAVGLMTRHSRSSRAESTASASTSAAESAMSRALPPTRWTTTVSATAQPTTDASVVEAQKDNAKSLLLLERGIDILNSVGGVRNPTVANLLRPLYAARFEMLNGSEHLPRSEYAKRMHVHKAILQQAAPLLYYDAWDKSDVHQLDTSCVLVGHFMKAFCALHPRPFHPVAAPATSGGAGSSQASSTTTTASSSSSSNSNSNVTSSSSAQSTPKGAFNPAEWKMAVGDDGEGAYLTLSIVQDRVEELLRLATAAYDKHGSTHPELRWLRPKLLVLKGLLTIPLTGHLLHAQRCIEEAAHYVDALTKRTNLLLDGLKERTHEPELGLYMLLQAEIAARVFDWDVAPGQVDGDVVNMFTDAAGYYADPPNTTLDGDAIMSERKLAEQRFEVEAYACCLRSYAAFLLGASRPEATSTRDSPVFLAKQLFSLNPLLTVATSSSLIFSDVRNVSELPLDMCRRRTGEALDRALKLNRMLYPDFRQNAPAAATLMTMACMYADTRDYLYATGLFESANKAVTYNFGDTSLEHVFLQKLRYEFLAGVGSEQEAKTASHEVVHLLKRIDALPC | soluble |
| MLRVLSRQAFSMVRAANFSASASSAGGGGLSDEVRKRIDGIVKKDDVVVFMKGTQQEPACGFSRNVKLVLDFHNVKFQDYNVLTDQELREGVKIFSEWPTIPQVYVKGEFVGGCDILISMHKDGEISDFLDEKGISNKYGKQ | not soluble |
| MLRWITAGESHGRALVAVVEGMVAGVHVTSADIADQLARRRLGYGRGARMTFERDAVTVLSGIRHGSTLGGPIAIEIGNTEWPKWETVMAADPVDPAELADVARNAPLTRPRPGHADYAGMLKYGFDDARPVLERASARETAARVAAGTVARAFLRQALGVEVLSHVISIGASAPYEGPPPRAEDLPAIDASPVRAYDKAAEADMIAQIEAAKKDGDTLGGVVEAVALGLPVGLGSFTSGDHRLDSQLAAAVMGIQAIKGVEIGDGFQTARRRGSRAHDEMYPGPDGVVRSTNRAGGLEGGMTNGQPLRVRAAMKPISTVPRALATVDLATGDEAVAIHQRSDVCAVPAAGVVVETMVALVLARAALEKFGGDSLAETQRNIAAYQRSVADREAPAARVSGHHHHHH | soluble |
| MLRWIVLICISLFLPLSAYADKSDCINHHCIAVIDAGSSSSRLHIYAYDLDETNTPIAIREIWNRKAVPGLPTIEHENKSVSAYMEKLFSDAPAVLMPVYFYSTAGMRLLPKTHHRNVNQLVAEWFDRQYYWRLVTARTISGTEEGIFAWLATNYQLNLFQQEPQTLAGVMDIGGASVQIVIPVVNPSFMDHEHTTTIRLYGKEFTVFSHSFLGLGQNEMGHQFFDLKFCFPEEYELPSGRQARGDAYACKDEIAILVNSVHSVSRKIKSVLAANPIEKWYILGGITFMLNDKLFSLDNQYFTNRDLISYADQNICHQKWSTLEVLYPDNLMVFNYCMLPSYLYALLVHGYGLKSYQKVNFMPNSKNIDWTLGVVLQHKQSAAALEHHHHHH | not soluble |
| MLSARYLHLHEALGLGPMWLKQAAAVLPPKNTPAPSAQARPQTVRAAPIRPSQPHNGQARLETMKALETAAVPTRKPAPETETPLPGLSDGIAPVPAASGITKLAVVSLCPPIEDAVYGQLFHGKAGILLDNILKAVGLDAAYVHKTCWVKTAAVGNPMPSEQAVANALGQIARELDGCRAPAVLFLGQAFVQPERQTMIETLCGSRPFFIIDHPARLLRQPELKARAWQVLKQLKRALRQGGGS | not soluble |
| MLSEVLLVSAPGKVILHGEHAVVHGKVALAVSLNLRTFLRLQPHSNGKVDLSLPNIGIKRAWDVARLQSLDTSFLEQGDVTTPTSEQVEKLKEVAGLPDDCAVTERLAVLAFLYLYLSICRKQRALPSLDIVVWSELPPGAGLGSSAAYSVCLAAALLTVCEEIPNPLKDGDCVNRWTKEDLELINKWAFQGERMIHGNPSGVDNAVSTWGGALRYHQGKISSLKRSPALQILLTNTKVPRNTRALVAGVRNRLLKFPEIVAPLLTSIDAISLECERVLGEMGEAPAPEQYLVLEELIDMNQHHLNALGVGHASLDQLCQVTRARGLHSKLTGAGGGGCGITLLKPGLEQPEVEATKQALTSCGFDCLETSIGAPGVSIHSATSLDSRVQQALDGL | soluble |
| MLSFTSRLKKDLFIKAQSLVPQHQLSRVVGKVAESENILIKAAVIQAFKTKYGIDLSIAEQADALKYKSFNEFFTRALKEGVRVVDSATGSIVSPADGAISQLGTIHDGEVFQAKGQSFSVEKLIGDPQLAQPFKQGQFATVYLSPRDYHRVHMPFTGTLTETLYIPGELFSVNQVTAENIPGLFARNERMVCLFDTELGRMAVVLVGAMIVAGIETVVTGKVKPTGRLELNHHDVTLQKGDELGRFYLGSTAIILFEKDKMVWDQQFKANSIVVMGEKLGQSTNPLEHHHHHH | not soluble |
| MLSRHINYFLAVAEHGSFTRAASALHVSQPALSQQIRQLEESLGVPLFDRSGRTIRLTDAGEVWRQYASRALQELGAGKRAIHDVADLTRGSLRIAVTPTFTSYFIGPLMADFYARYPSITLQLQEMSQEKIEDMLCRDELDVGIAFAPVHSPELEAIPLLTESLALVVAQHHPLAVHEQVALSRLHDEKLVLLSAEFATREQIDHYCEKAGLHPQVVIEANSISAVLELIRRTSLSTLLPAAIATQHDGLKAISLAPPLLERTAVLLRRKNSWQTAAAKAFLHMALDKCAVVGGNESR | not soluble |
| MLSRVRIGWLLLEDFFRMNEFEELLNSVSEVSTGDVVTAEVISVDNDQANVVIEGTGIEGVLTRRELTNDRDANVADLVKDGETLEVLVLRQVVGKDTDTVTYLVSKKRLEARKAWDKLVGREEEVVTVKGTRAVKGGLSVEFEGLRGFIPASMIDTRFVRNTEQFVGQEFDAKIKEVDPAENRFILSRREVVEAEAIEARKEVFSKLEVGSVVTGKVARLTSFGAFIDLGGVDGLVHVTELSHERNVSPKSVVSVGDEIEVKVLAIDEEAGRVSLSLKATTPGPWDGVEQKLAAGDVIEGKVKRLTDFGGFVEVLPGIDGLVHISQISHKRVENPKDVLSVGQDVTVKVLEVNADAERVSLSIKALEERPANAEGENNEKRQSRPRRPKRQEKRDYELPETQSGFSMADLFGDIEL | not soluble |
| MLSSPLRVAVVCVSNINRSMEAHSILRRKGLSVRSFGTESHVRLPGRRPNHPVVYDFATTYKEMYNDLLRKDRECYTHNGILHILGRNERIKPGPERFQECTEFFDVIFTCEERVYDTVVEDLCSREQQTFQPVHVINMDIKDTLEGAILGAFLICEICQCLQQSDDMEDSLEELLLQMEEKAGKSFLHTVCFYLEHHHHHH | soluble |

From the DeepSol protein solubility set
